The values that follow are results of earlier work, collected in paper PMC5347372.

As a reminder, the Kd is a measure of binding affinity in units of concentration.

This series has as its target alpha-factor (Saccharomyces cerevisiae) (UniProt P01149).

Consider Ste2 (from UniProt D6VTK4), for which the Kd is 7 nM.
